US20180185450A1 (Sanofi, published 2018)
Like-named read-outs stand apart in the source and are kept apart here.

Tests used:
Assay in all cases: cell-based or functional assay
[1] = biological target: T1, human GLP-1 receptor (human, UniProt P43220 24-463)
[2] = biological target: T2, human glucagon receptor (human, UniProt P47871 26-477)
[3] = biological target: T1, human GLP-1 receptor; remark: listed apart in the source
[4] = biological target: T2, human glucagon receptor; remark: listed apart in the source

T2 sequence (P47871 26-477): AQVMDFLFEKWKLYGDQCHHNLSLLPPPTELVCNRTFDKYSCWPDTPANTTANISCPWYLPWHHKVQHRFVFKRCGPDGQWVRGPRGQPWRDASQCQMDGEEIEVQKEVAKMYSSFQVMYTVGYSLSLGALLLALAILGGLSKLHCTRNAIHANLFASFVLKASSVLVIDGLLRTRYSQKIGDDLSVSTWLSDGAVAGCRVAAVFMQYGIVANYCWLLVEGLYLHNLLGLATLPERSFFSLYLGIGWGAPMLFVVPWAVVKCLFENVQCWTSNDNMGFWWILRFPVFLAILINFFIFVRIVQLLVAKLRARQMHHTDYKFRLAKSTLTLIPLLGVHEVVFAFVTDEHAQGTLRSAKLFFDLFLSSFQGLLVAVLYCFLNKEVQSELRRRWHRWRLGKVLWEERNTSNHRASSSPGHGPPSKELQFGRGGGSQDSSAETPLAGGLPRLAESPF

| Binder | EC50 hGLP-1R (cAMP) [1] [pM] | EC50 hGlucagon-R (cAMP) [2] [pM] | EC50 hGLP-1R (cAMP) [3] [pM] | EC50 hGlucagon-R (cAMP) [4] [pM] |
| --- | --- | --- | --- | --- |
| HXQGTFTSDLSKQKESKAAQDFIEWLKAGGPSSGAPPPS (dSer at 2; K(γE-x53) at 14; C-terminal NH2) [SEQ ID NO: 24] | 1.9 | 9.4 | 2 | 9.8 |
| HXQGTFTSDLSKQKDSKAAQDFIEWLKAGGPSSGAPPPS (dSer at 2; K(γE-x53) at 14; C-terminal NH2) [SEQ ID NO: 30] | 3.2 | 7 | 3.2 | 7 |
